Experimental data as given in patent US20230133118A1, “COMPOSITIONS AND METHODS FOR TREATING CANCER” (Adagene AG, priority 2020, published 2023).

Biological target: human CD137 (human) (UniProt Q07011)
Assay: surface plasmon resonance (SPR); format not described

Sequence of Urelumab (antibody) (VH): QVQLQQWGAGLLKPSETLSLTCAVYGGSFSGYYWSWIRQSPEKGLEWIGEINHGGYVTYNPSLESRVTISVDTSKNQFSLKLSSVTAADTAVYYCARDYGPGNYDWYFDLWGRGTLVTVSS
Sequence of Urelumab (antibody) (VL): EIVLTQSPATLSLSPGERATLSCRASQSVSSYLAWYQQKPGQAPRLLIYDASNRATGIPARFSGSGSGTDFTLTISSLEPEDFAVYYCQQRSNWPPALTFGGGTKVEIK
Sequence of human CD137 (human) (Q07011 24-186 limits assumed): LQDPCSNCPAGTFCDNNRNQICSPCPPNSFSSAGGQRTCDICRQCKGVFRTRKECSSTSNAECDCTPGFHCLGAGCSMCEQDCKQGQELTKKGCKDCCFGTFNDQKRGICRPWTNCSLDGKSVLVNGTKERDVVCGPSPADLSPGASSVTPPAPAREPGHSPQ

Question: Which Kd does the source give for Urelumab (antibody) here?
Answer: 9.6 nM
